How the values were obtained:
[1] = target: EpCAM on HT-29 cells (human) (UniProt P16422); assay: flow cytometry, direct binding to CD33- EpCAM+ HT-29 cells (specificity control), 4 µg drug
CD133 on Caco-2 cells = target: T1, CD133 on Caco-2 cells (human, UniProt O43490 20-865); assay: flow cytometry on Caco-2 cells, competition with FITC-labeled 1615133 TriKE
T1 construct: whole, on cells; also called prominin-1
T1 sequence (looked up): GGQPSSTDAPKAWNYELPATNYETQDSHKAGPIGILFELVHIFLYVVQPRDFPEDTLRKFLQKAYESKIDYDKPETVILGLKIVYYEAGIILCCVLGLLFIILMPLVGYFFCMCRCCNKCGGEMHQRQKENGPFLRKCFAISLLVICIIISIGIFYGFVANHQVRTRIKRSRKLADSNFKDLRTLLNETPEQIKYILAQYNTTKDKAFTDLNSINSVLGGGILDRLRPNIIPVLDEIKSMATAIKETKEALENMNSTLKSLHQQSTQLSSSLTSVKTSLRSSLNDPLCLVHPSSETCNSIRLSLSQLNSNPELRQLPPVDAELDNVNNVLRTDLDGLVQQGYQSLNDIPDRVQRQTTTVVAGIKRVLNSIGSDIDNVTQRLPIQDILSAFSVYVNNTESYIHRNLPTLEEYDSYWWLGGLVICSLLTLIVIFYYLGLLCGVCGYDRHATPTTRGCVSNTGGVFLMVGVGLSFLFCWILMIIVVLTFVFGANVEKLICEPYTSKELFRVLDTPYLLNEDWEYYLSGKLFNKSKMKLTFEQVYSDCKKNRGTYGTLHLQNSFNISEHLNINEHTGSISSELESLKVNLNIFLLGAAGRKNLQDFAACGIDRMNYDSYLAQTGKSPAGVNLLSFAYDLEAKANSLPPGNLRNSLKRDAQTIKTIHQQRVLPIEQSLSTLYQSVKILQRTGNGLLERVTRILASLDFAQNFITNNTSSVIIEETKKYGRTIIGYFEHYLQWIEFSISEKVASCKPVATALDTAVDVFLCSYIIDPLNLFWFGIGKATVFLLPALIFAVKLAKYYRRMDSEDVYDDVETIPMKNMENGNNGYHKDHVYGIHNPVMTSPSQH

Chain of EpCAM on HT-29 cells (human) (P16422 24-314): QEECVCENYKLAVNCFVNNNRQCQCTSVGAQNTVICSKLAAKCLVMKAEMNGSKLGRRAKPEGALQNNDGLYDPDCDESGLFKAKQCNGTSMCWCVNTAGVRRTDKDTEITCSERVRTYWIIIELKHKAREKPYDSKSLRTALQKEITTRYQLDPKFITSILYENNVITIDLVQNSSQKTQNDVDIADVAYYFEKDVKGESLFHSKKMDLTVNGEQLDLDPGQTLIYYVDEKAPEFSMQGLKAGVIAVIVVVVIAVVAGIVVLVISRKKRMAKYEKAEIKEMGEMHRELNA

B1: 1633 bispecific killer engager (BiKE) (bispecific antibody)
chain: MEVQLVESGGGVVRPGGSLRLSCAASGFTFDDYGMSWVRQAPGKGLEWVSGINWNGGSTGYADSVKGRFTISRDNAKNSLYLQMNSLRAEDTAVYYCARGRSLLFDYWGQGTLVTVSRGGGGSGGGGSGGGGSSELTQDPAVSVALGQTVRITCQGDSLRSYYASWYQQKPGQAPVLVIYGKNNRPSGIPDRFSGSSSGNTASLTITGAQAEDEADYYCNSRDSSGNHVVFGGGTKLTVLPSGQAGAAASESLFVSNHAYQVQLVQSGAEVKKPGSSVKVSCKASGYTFTDYNMHWVRQAPGQGLEWIGYIYPYNGGTGYNQKFKSKATITADESTNTAYMELSSLRSEDTAVYYCARGRPAMDYWGQGTLVTVSSGGGGSGGGGSGGGGSDIQMTQSPSSLSASVGDRVTITCRASESVDNYGISFMNWFQQKPGKAPKLLIYAASNQGSGVPSRFSGSGSGTDFTLTISSLQPDDFATYYCQQSKEVPWTFGQGTKVEIK
modifications: FITC label (site not stated)
For B1, the % Positive Cells [1] was 1%.

B2: anti-CD133 scFv (scFv)
scFv: MDIVLSQSPAIMSASPGEKVTISCSASSSVSYMYWYQQKPGSSPKPWIYRTSNLASGVPARFSGSGSGTSYSLTISSMEAEDAATYYCQQYHSYPPTFGAGTKLELKSSGGGGSGGGGGGSSRSSLEVKLVESGPELKKPGETVKISCKASGYTFTDYSMHWVNQAPGKGLKWMGWINTETGEPSYADDFKGRFAFSLETSASTAYLQINNLKNEDTATYFCATDYGDYFDYWGQGTTLTVSS
notes: also called monomeric CD133 scFv; anti-CD133 scFv from clone 7
B2: binds (CD133 on Caco-2 cells).
